Laboratory results published in patent US20250235545A1, “POLYPEPTIDE CONJUGATE AND USE THEREOF” (SHANGHAI CHIXI BIOMEDICAL TECHNOLOGY CO., LTD, priority 2024, published 2025).
≈ marks a conversion by molar mass, not a printed value. Where two headings read alike, the source gives them in different places. Where a SMILES comes first, the peptide text is derived from it. The star is where a group is joined. Belotecan = CC[C@@]1(O)C(=O)OCc2c1cc1n(c2=O)Cc2c-1nc1ccccc1c2CCN(C(C)C)*; X8 = CC[C@@]1(O)C(=O)OCc2c1cc1n(c2=O)Cc2c-1nc1ccccc1c2CCN(C1CCCC1)*; X7 = CC[C@@]1(O)C(=O)OCc2c1cc1n(c2=O)Cc2c-1nc1ccccc1c2CCN(C)*; Propanoyl(3-maleimido) = O=C1C=CC(=O)N1CCC(=O)*; PEG6 = NCCOCCOCCOCCOCCOCCOCCC(=O)O

Key:
[1] = Homogenate activation efficiency, heart tissue (Examples 28, 37); format: in vitro ADME; settings: pH 5.0, 37° C., 2 h; Table 10
[2] = system: sarcoma SJSA-1 tumor model; settings: Table 7
Procedure, shortened: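 SJSA-1 cells (2×10^7, DMEM/10% FBS, under 15 passages) implanted subcutaneously in right chest of female BALB/c nude mice, 6-8 weeks old. At ≥100 mm^3, randomized three per group; dosing once weekly for three weeks, saline as control, day 1 = first treatment.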

[3] = Tumor homogenate activation efficiency, non-small cell lung cancer tissue (Examples 28, 37); format: in vitro ADME; settings: pH 5.0, 37° C., 2 h; Table 10
Procedure, shortened: (§1)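 1 mg/ml conjugate, pH 5.0 (50 mM MES, 250 mM NaCl); + 100 μg tissue homogenate; 37° C, 2 h. HPLC, release = Belotecan area / total Belotecan-containing area.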

A2780 (ovarian cancer) = assay: cells; format: cell-based; settings: CCK8, 48 h; Table 6
Procedure, shortened: (§2)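 5,000 cells/well; compound dilution series, triplicates; vehicle 0.1% DMSO; medium RPMI1640 or DMEM high glucose + 10% FBS + 1 mM pyruvate. 48 h, 37° C, 5% CO2. CCK8 ~2 h, OD450. IC50 calculated.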

[4] = system: SKBR3 (breast cancer tissue); assay: cells; format: cell-based; settings: CCK8, 48 h; Table 6
Procedure, shortened: as §2

SJSA-1 (sarcoma tissue) = assay: cells; format: cell-based; settings: CCK8, 48 h; Table 6
Procedure, shortened: as §2

[5] = system: A549 (non-small cell lung cancer); assay: cells; format: cell-based; settings: CCK8, 48 h; Table 6
Procedure, shortened: as §2

[6] = system: colo320 (colorectal cancer tissue); assay: cells; format: cell-based; settings: CCK8, 48 h; Table 6
Procedure, shortened: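 Colo320 cells, 5,000 per well, exposed to drug concentration series for 48 h at 37 °C, 5% CO2 (0.1% DMSO controls). Viability by CCK8, absorbance at 450 nm after about 2 h. Survival rates and IC50 calculated.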

[7] = Tumor homogenate activation efficiency, colorectal cancer tissue (Example 37); format: in vitro ADME; settings: pH 5.0, 37° C., 2 h; Table 10
Method: Buffer preparation: 50 mM PH buffer (MES), 250 mM NaCl, pH adjusted to 5.0 with 0.5 M of sodium hydroxide.
The polypeptide conjugate was prepared into a 1 mg/ml solution with pH 5.0 buffer, 100 μg of tumor tissue homogenate was added, (the tumor tissue homogenate was the homogenate of tumor tissues prepared with a Jingxin F6/10 handheld homogenizer), and the solution was placed at 37° C. for 2 h. The tumor tissue homogenate could effectively activate the polypeptide conjugate and release Belotecan, and the activation efficiencies of the drugs in tumor tissues were compared by HPLC allowing determination of a decrease in the compounds and an increase in Belotecan:
Release percentage=peak area of Belotecan/total peak area of Belotecan and all other Belotecan-containing compounds

[8] = Tumor homogenate activation efficiency, ovarian cancer tissue (Examples 28, 37); format: in vitro ADME; settings: pH 5.0, 37° C., 2 h; Table 10
Procedure, shortened: as §1

[9] = MTD determination in mice (Examples 27, 36, 44); format: in vivo; settings: female, mouse, in vivo; mice, monitored for 14 d; Table 9
Text: Test animals: 6-8 weeks old mice, all female; mice were grouped randomly, with six mice in each group, administered with drugs at different concentration gradients separately and monitored for 14 d. A mouse was euthanized at a loss of 20% of its initial weight and deemed to have died of poisoning.

[10] = system: colo320 colorectal cancer tumor model
Procedure, shortened: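 Female BALB/c nude mice, 6–8 weeks old, received 7.5×10^6 colo320 cells subcutaneously in the right chest. Once tumors reached at least 120 mm^3 they were randomized three per group. Treatment with test agents or saline control was given once weekly for four weeks.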

[11] = Tumor homogenate activation efficiency, sarcoma tissue (Examples 28, 37); format: in vitro ADME; settings: pH 5.0, 37° C., 2 h; Table 10
Procedure, shortened: as §1

[12] = Tumor homogenate activation efficiency, breast cancer tissue (Examples 28, 37); format: in vitro ADME; settings: pH 5.0, 37° C., 2 h; Table 10
Procedure, shortened: as §1

[13] = 15 mg/kg once a week for three weeks
[14] = 45 mg/kg once a week for three weeks
[15] = 15 mg/kg once a week for four weeks, Table 8
[16] = 45 mg/kg once a week for four weeks, Table 8
[17] = Table 13 (Example 42), dose 45 mg/kg, once a week for four weeks, BALB/c mice
[18] = Table 14 (Example 43), dose 45 mg/kg, once a week for four weeks, BALB/c mice

| SMILES | Percentage of release efficiency (%) Heart tissue [1] [%] | Mouse weight (%) [2, 14] | SJSA-1 (sarcoma tissue) growth rate (%) [2, 14] [%] | SJSA-1 (sarcoma tissue) mean tumor volume (mm^3) [2, 14] [mm^3] | Percentage of release efficiency (%) Non-small cell lung cancer tissue (A549) [3] [%] | IC50 Ovarian cancer tissue (A2780) (A2780 (ovarian cancer)) [µg/mL] | IC50 Breast cancer tissue (SKBR3) [4] [µg/mL] | IC50 Sarcoma tissue (SJSA-1) (SJSA-1 (sarcoma tissue)) [µg/mL] | IC50 Non-small cell lung cancer tissue (A549) [5] [µg/mL] | IC50 Colorectal cancer tissue (colo320) [6] [µg/mL] | Percentage of release efficiency (%) Colorectal cancer tissue (colo320) [7] [%] | Percentage of release efficiency (%) Ovarian cancer tissue (A2780) [8] [%] | MTD at 14 d [9] [mg/kg] | Mouse weight (%) [10, 15] | Mouse weight (%) [10, 16] | colo320 (colorectal cancer cell) growth rate (%) [10, 16] [%] | colo320 (colorectal cancer cell) mean tumor volume (mm^3) [10, 16] [mm^3] | Mouse weight (%) [10, 17] | Percentage of release efficiency (%) Sarcoma tissue (SJSA1) [11] [%] | Percentage of release efficiency (%) Breast cancer tissue (SKBR3) [12] [%] | other results |
| --- | --- | --- | --- | --- | --- | --- | --- | --- | --- | --- | --- | --- | --- | --- | --- | --- | --- | --- | --- | --- | --- |
| CC[C@@]1(O)C(=O)OCc2c1cc1n(c2=O)Cc2c-1nc1ccccc1c2CCN(C(=O)[C@H](CC(C)C)NC(=O)[C@H](Cc1ccccc1)NC(=O)CNC(=O)CNC(=O)CCOCCOCCOCCOCCOCCOCCNC(=O)CCN1C(=O)C=CC1=O)C(C)C [MI-6PEG-GGFL-Belotecan] ({Propanoyl(3-maleimido)-PEG6}-GGFL-Belotecan) | 1.8 | +22% | 995.32 | 1254.1 | 77.3 | 1.91 (≈ 1.48 µM) | 3.69 (≈ 2.85 µM) | 1.24 (≈ 0.958 µM) | 2.21 (≈ 1.71 µM) | 2.86 (≈ 2.21 µM) | 83.1 | 73.6 | 100 | +27% | +5% | 671.56 | 789.4 | +5% | 68 | 73.2 | Mouse weight (%) [2, 13]: +27%; SJSA-1 (sarcoma tissue) growth rate (%) [2, 13]: 1134.95%; SJSA-1 (sarcoma tissue) mean tumor volume (mm^3) [2, 13]: 1278.6 mm^3; colo320 (colorectal cancer cell) growth rate (%) [10, 15]: 994.05%; colo320 (colorectal cancer cell) mean tumor volume (mm^3) [10, 15]: 1254.2 mm^3; colo320 (colorectal cancer cell) growth rate (%) [10, 17]: 671.56%; colo320 (colorectal cancer cell) mean tumor volume (mm^3) [10, 17]: 789.4 mm^3; Mouse weight (%) [10, 18]: +5%; colo320 (colorectal cancer cell) growth rate (%) [10, 18]: 671.56%; colo320 (colorectal cancer cell) mean tumor volume (mm^3) [10, 18]: 789.4 mm^3 |
| CC[C@@]1(O)C(=O)OCc2c1cc1n(c2=O)Cc2c-1nc1ccccc1c2CCN(C(=O)[C@H](CC(C)C)NC(=O)[C@H](CC(N)=O)NC(=O)[C@H](C)NC(=O)[C@H](C)NC(=O)CCOCCOCCOCCOCCOCCOCCNC(=O)CCN1C(=O)C=CC1=O)C1CCCC1 [MI-6PEG-AANL-D8] ({Propanoyl(3-maleimido)-PEG6}-AANL-X8) | 2.2 | +17% | – | – | 68.4 | 1.27 (≈ 0.965 µM) | 1.98 (≈ 1.51 µM) | 1.54 (≈ 1.17 µM) | 2.27 (≈ 1.73 µM) | 2.97 (≈ 2.26 µM) | 78.9 | 71 | 200 | +33% | +15% | – | – | – | 81.1 | 70.2 | – |
| CC[C@@]1(O)C(=O)OCc2c1cc1n(c2=O)Cc2c-1nc1ccccc1c2CCN(C)C(=O)[C@H](CC(C)C)NC(=O)[C@H](Cc1ccccc1)NC(=O)CNC(=O)CNC(=O)CCOCCOCCOCCOCCOCCOCCNC(=O)CCN1C(=O)C=CC1=O [MI-6PEG-GGFL-D1] ({Propanoyl(3-maleimido)-PEG6}-GGFL-X7) | 1.4 | +11% | 1181.64 | 1485.2 | 82.5 | – | – | – | – | – | 86.7 | 80 | 120 | – | +19% | 766.16 | 900.6 | +19% | 73.5 | 69.5 | colo320 (colorectal cancer cell) growth rate (%) [10, 17]: 766.16%; colo320 (colorectal cancer cell) mean tumor volume (mm^3) [10, 17]: 900.6 mm^3; Mouse weight (%) [10, 18]: +19%; colo320 (colorectal cancer cell) growth rate (%) [10, 18]: 766.16%; colo320 (colorectal cancer cell) mean tumor volume (mm^3) [10, 18]: 900.6 mm^3 |
